Test results published in publication PMC11532494 (Nature Communications, 2024).
“And” between values parts separate entries of the source, which are not always exact repeats. Equal values may be shown once. Read-outs that look alike come from different tables or passages of the source. No end group written: not given here. *: point of attachment. AMC = Cc1cc(=O)oc2cc(N*)ccc12

Legend:
VsHdaH (1b) = type: biochemical, Vibrio sp.; conditions: for RFU means, VsHdaH (1b) / RFU*2 means, VsHdaH (1b): means of two measurements; for [AMC] (nM), VsHdaH (1b), means / [AMC] (nM), VsHdaH (1b): substrate screening; for [AMC] (nM), VsHdaH (1b), means: mean of two measurements
RsPrpH (1b) = test: Substrate screening assay (acyl-peptide-AMC); type: biochemical, Rhizorhabdus sp.
RwDmhA (1b) = RwDmhA (1b) (Rhizorhabdus wittichii, UniProt A0A067XIQ6); type: biochemical
KpHdaH (1b) = KpHdaH (1b) (Klebsiella pneumoniae, UniProt A0A377Z5F6); type: biochemical; conditions: for RFU means, KpHdaH (1b) / RFU*2 means, KpHdaH (1b): means of two measurements; for [AMC] (nM), KpHdaH (1b), means / [AMC] (nM), KpHdaH (1b): substrate screening; for [AMC] (nM), KpHdaH (1b), means: mean of two measurements
BsAcuC (2c) = target: T1, BsAcuC (2c) (Bacillus subtilis, UniProt P39067); test: Substrate screening assay (acyl-peptide-AMC); type: biochemical; conditions: for RFU means, BsAcuC (2c) / RFU*2 means, BsAcuC (2c): means of two measurements; for [AMC] (nM), BsAcuC (2c), means: substrate screening, mean of two measurements
T1 construct: made in house; host or cells: E. coli BL21 (DE3)
T1 sequence (P39067 1-387): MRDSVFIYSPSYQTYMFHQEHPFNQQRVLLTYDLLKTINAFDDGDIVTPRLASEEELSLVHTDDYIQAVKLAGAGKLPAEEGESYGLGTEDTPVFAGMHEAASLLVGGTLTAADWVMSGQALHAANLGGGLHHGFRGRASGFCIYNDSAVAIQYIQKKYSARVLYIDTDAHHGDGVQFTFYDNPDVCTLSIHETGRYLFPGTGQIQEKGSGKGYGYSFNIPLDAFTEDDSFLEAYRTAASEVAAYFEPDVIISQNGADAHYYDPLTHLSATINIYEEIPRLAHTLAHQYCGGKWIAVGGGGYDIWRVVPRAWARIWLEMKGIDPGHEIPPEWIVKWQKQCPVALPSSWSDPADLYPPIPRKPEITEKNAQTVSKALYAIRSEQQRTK
Procedure: (§1) Experiments with SIRT2 and SIRT5 were supplemented with NAD^+ (500 µM). Thereafter, a solution of trypsin (25 µL, 5.0 mg/mL; final concentration of 2.5 mg/mL) was added, and the development of the assay was allowed to proceed for 90 min at room temperature before fluorescence analysis. […] To this end, a single category is given to all conversions >48% on the heatmap. […] For the H4-derived peptide LGKbio no positive control was available.

VcHdaH (5b) = type: biochemical, Vibrio cholerae; conditions: for RFU means, VcHdaH (5b) / RFU*2 means, VcHdaH (5b): means of two measurements; for [AMC] (nM), VcHdaH (5b), means: substrate screening, mean of two measurements
PsApaH (4) = PsApaH (4) (Pseudomonas sp. M30-35, UniProt A0A1Y0KY79); type: biochemical; conditions: for RFU means, PsApaH (4) / RFU*2 means, PsApaH (4): means of two measurements; for [AMC] (nM), PsApaH (4), means / [AMC] (nM), PsApaH (4): substrate screening; for [AMC] (nM), PsApaH (4), means: mean of two measurements
Procedure: as §1

LcApaH (3) = LcApaH (3) (Legionella cherrii, UniProt A0A0W0SGS1); type: biochemical
LpApaH (3) = LpApaH (3) (Legionella pneumophila, UniProt A0A2S6EWV0); type: biochemical
Controls [1] = type: biochemical
Controls [2] = type: biochemical; remark: listed apart in the source
[3] = two measurements, single values
[4] = substrate screening, mean of two measurements
[5] = substrate screening, measurement 1 of two
[6] = substrate screening, measurement 2 of two

Substance: QPKKoct (QPKK-{AMC}; not fully specified (residue 4); printed as QPKKoct; also: octanoyl-lysine (which Lys not given here); UniProt P04637 317-320, looked up, fragment)
- RFU means, VsHdaH (1b) (VsHdaH (1b)): 110.5 RFU
- RFU*2 means, VsHdaH (1b) (VsHdaH (1b)): 221 RFU*2
- [AMC] (nM), VsHdaH (1b), means (VsHdaH (1b)): 107.91 nM
- [AMC] (nM), VsHdaH (1b) (VsHdaH (1b); measurement 1 of two): 121.09 nM
- [AMC] (nM), VsHdaH (1b) (VsHdaH (1b); measurement 2 of two): 94.73 nM
- RFU*2, VsHdaH (1b) (VsHdaH (1b); [3]): 248 RFU*2 and 194 RFU*2
- RFU, VsHdaH (1b) (VsHdaH (1b); [3]): 124 RFU and 97 RFU
- RFU means, RsPrpH (1b) (RsPrpH (1b); means of two measurements): 38 RFU
- RFU*2 means, RsPrpH (1b) (RsPrpH (1b); means of two measurements): 76 RFU*2
- [AMC] (nM), RsPrpH (1b), means (RsPrpH (1b); [4]): 37.11 nM
- [AMC] (nM), RsPrpH (1b) (RsPrpH (1b); [5]): 3.91 nM
- [AMC] (nM), RsPrpH (1b) (RsPrpH (1b); [6]): 70.31 nM
- RFU means, RwDmhA (1b) (RwDmhA (1b); means of two measurements): 64 RFU
- RFU*2 means, RwDmhA (1b) (RwDmhA (1b); means of two measurements): 128 RFU*2
- [AMC] (nM), RwDmhA (1b), means (RwDmhA (1b); [4]): 62.50 nM
- [AMC] (nM), RwDmhA (1b) (RwDmhA (1b); [5]): 51.76 nM
- [AMC] (nM), RwDmhA (1b) (RwDmhA (1b); [6]): 73.24 nM
- RFU*2, RwDmhA (1b) (RwDmhA (1b); [3]): 106 RFU*2 and 150 RFU*2
- RFU, RwDmhA (1b) (RwDmhA (1b); [3]): 53 RFU and 75 RFU
- RFU means, KpHdaH (1b) (KpHdaH (1b)): -28 RFU
- RFU*2 means, KpHdaH (1b) (KpHdaH (1b)): -56 RFU*2
- [AMC] (nM), KpHdaH (1b), means (KpHdaH (1b)): -27.34 nM
- [AMC] (nM), KpHdaH (1b) (KpHdaH (1b); measurement 1 of two): -12.70 nM
- [AMC] (nM), KpHdaH (1b) (KpHdaH (1b); measurement 2 of two): -41.99 nM
- RFU means, BsAcuC (2c) (BsAcuC (2c)): 2011.5 RFU
- RFU*2 means, BsAcuC (2c) (BsAcuC (2c)): 4023 RFU*2
- [AMC] (nM), BsAcuC (2c), means (BsAcuC (2c)): 1964.36 nM
- RFU*2, BsAcuC (2c) (BsAcuC (2c); [3]): 4802 RFU*2 and 3244 RFU*2
- RFU means, VcHdaH (5b) (VcHdaH (5b)): 71 RFU
- RFU*2 means, VcHdaH (5b) (VcHdaH (5b)): 142 RFU*2
- [AMC] (nM), VcHdaH (5b), means (VcHdaH (5b)): 69.34 nM
- RFU*2, VcHdaH (5b) (VcHdaH (5b); [3]): 138 RFU*2 and 146 RFU*2
- RFU, VcHdaH (5b) (VcHdaH (5b); [3]): 69 RFU and 73 RFU
- RFU means, PsApaH (4) (PsApaH (4)): 80.5 RFU
- RFU*2 means, PsApaH (4) (PsApaH (4)): 161 RFU*2
- [AMC] (nM), PsApaH (4), means (PsApaH (4)): 78.61 nM
- [AMC] (nM), PsApaH (4) (PsApaH (4); measurement 1 of two): 85.94 nM
- [AMC] (nM), PsApaH (4) (PsApaH (4); measurement 2 of two): 71.29 nM
- RFU*2, PsApaH (4) (PsApaH (4); [3]): 146 RFU*2 and 176 RFU*2
- RFU, PsApaH (4) (PsApaH (4); [3]): 73 RFU and 88 RFU
- RFU means, LcApaH (3) (LcApaH (3)): 186 RFU
- RFU*2 means, LcApaH (3) (LcApaH (3)): 372 RFU*2
- [AMC] (nM), LcApaH (3), means (LcApaH (3)): 181.64 nM
- RFU means, LpApaH (3) (LpApaH (3)): 63 RFU
- RFU*2, LpApaH (3) (LpApaH (3)): 110 RFU*2 and 142 RFU*2
- RFU*2 means, LpApaH (3) (LpApaH (3)): 126 RFU*2
- RFU, LpApaH (3) (LpApaH (3)): 55 RFU and 71 RFU
- [AMC] (nM), LpApaH (3) (LpApaH (3)): 53.71 nM and 69.34 nM
- [AMC] (nM), LpApaH (3), means (LpApaH (3)): 61.52 nM
- RFU means, controls (Controls [1]): 8340.5 RFU
- RFU*2, controls (Controls [1]): 13158 RFU*2 and 20204 RFU*2
- RFU*2 means, controls (Controls [1]): 16681 RFU*2
- RFU, controls (Controls [1]): 6579 RFU and 10102 RFU
- [AMC] (nM), controls, means (Controls [2]): 8145.02 nM

Substance: QPKKpal (QPKK-{AMC}; not fully specified (residue 4); printed as QPKKpal; also: palmitoyl-lysine (which Lys not given here); UniProt P04637 317-320, looked up, fragment)
- RFU means, VsHdaH (1b) (VsHdaH (1b)): 11 RFU
- RFU*2 means, VsHdaH (1b) (VsHdaH (1b)): 22 RFU*2
- [AMC] (nM), VsHdaH (1b), means (VsHdaH (1b)): 10.74 nM
- [AMC] (nM), VsHdaH (1b) (VsHdaH (1b); measurement 1 of two): 40.04 nM
- [AMC] (nM), VsHdaH (1b) (VsHdaH (1b); measurement 2 of two): -18.55 nM
- RFU means, RsPrpH (1b) (RsPrpH (1b)): -58.5 RFU
- RFU*2 means, RsPrpH (1b) (RsPrpH (1b)): -117 RFU*2
- [AMC] (nM), RsPrpH (1b), means (RsPrpH (1b)): -57.13 nM
- RFU means, RwDmhA (1b) (RwDmhA (1b)): -48 RFU
- RFU*2 means, RwDmhA (1b) (RwDmhA (1b)): -96 RFU*2
- [AMC] (nM), RwDmhA (1b), means (RwDmhA (1b)): -46.88 nM
- RFU means, KpHdaH (1b) (KpHdaH (1b)): 2.5 RFU
- RFU*2 means, KpHdaH (1b) (KpHdaH (1b)): 5 RFU*2
- [AMC] (nM), KpHdaH (1b), means (KpHdaH (1b)): 2.44 nM
- [AMC] (nM), KpHdaH (1b) (KpHdaH (1b); measurement 1 of two): 8.79 nM
- [AMC] (nM), KpHdaH (1b) (KpHdaH (1b); measurement 2 of two): -3.91 nM
- RFU means, BsAcuC (2c) (BsAcuC (2c)): 77 RFU
- RFU*2 means, BsAcuC (2c) (BsAcuC (2c)): 154 RFU*2
- [AMC] (nM), BsAcuC (2c), means (BsAcuC (2c)): 75.20 nM
- RFU means, VcHdaH (5b) (VcHdaH (5b)): -8.5 RFU
- RFU*2 means, VcHdaH (5b) (VcHdaH (5b)): -17 RFU*2
- [AMC] (nM), VcHdaH (5b), means (VcHdaH (5b)): -8.30 nM
- RFU means, PsApaH (4) (PsApaH (4)): 27 RFU
- RFU*2 means, PsApaH (4) (PsApaH (4)): 54 RFU*2
- [AMC] (nM), PsApaH (4), means (PsApaH (4)): 26.37 nM
- [AMC] (nM), PsApaH (4) (PsApaH (4); measurement 1 of two): 39.06 nM
- [AMC] (nM), PsApaH (4) (PsApaH (4); measurement 2 of two): 13.67 nM
- RFU means, LcApaH (3) (LcApaH (3)): 26.5 RFU
- RFU*2 means, LcApaH (3) (LcApaH (3)): 53 RFU*2
- [AMC] (nM), LcApaH (3), means (LcApaH (3)): 25.88 nM
- RFU means, LpApaH (3) (LpApaH (3)): 16 RFU
- RFU*2 means, LpApaH (3) (LpApaH (3)): 32 RFU*2
- [AMC] (nM), LpApaH (3), means (LpApaH (3)): 15.63 nM
- RFU means, controls (Controls [1]): 9515.5 RFU
- RFU*2, controls (Controls [1]): 16530 RFU*2 and 21532 RFU*2
- RFU*2 means, controls (Controls [1]): 19031 RFU*2
- RFU, controls (Controls [1]): 8265 RFU and 10766 RFU
- [AMC] (nM), controls, means (Controls [2]): 9292.48 nM
